# Measurements as given in patent publication US20240288440A1 (MACFARLANE BURNET INSTITUTE FOR MEDICAL RESEARCH AND PUBLIC …, published 2024).
# Target: SARS-COV-2 spike protein, ancestral Hu-1, on retroviral pseudotyped virus (SARS-COV-2, UniProt P0DTC2 14-1273)
# Experiment: cell-based or functional assay
binder,measurement,value
CB6-dIgA2 (dimeric chimeric IgA2 of monoclonal antibody CB6 with J chain) (antibody) heavy: ASEVQLVESGGGLVQPGGSLRLSCAASGFTVSSNYMSWVRQAPGKGLEWVSVIYSGGSTFYADSVKGRFTISRDNSMNTLFLQMNSLRAEDTAVYYCARVLPMYGDYLDYWGQGTLVTVSSASTKGPSVFPLAPSSKSTSGASPTSPKVFPLSLDSTPQDGNVVVACLVQGFFPQEPLSVTWSESGQNVTARNFPPSQDASGDLYTTSSQLTLPATQCPDGKSVTCHVKHYTNPSQDVTVPCPVPPPPPCCHPRLSLHRPALEDLLLGSEANLTCTLTGLRDASGATFTWTPSSGKSAVQGPPERDLCGCYSVSSVLPGCAQPWNHGETFTCTAAHPELKTPLTANITKSGNTFRPEVHLLPPPSEELALNELVTLTCLARGFSPKDVLVRWLQGSQELPREKYLTWASRQEPSQGTTTFAVTSILRVAAEDWKKGDTFSCMVGHEALPLAFTQKTIDRLAGKPTHVNVSVVMAEVDGTCY light: not shown J chain: not shown,"IC50 of pseudotyped virus entry, fold against the IgG version",2.5 fold
